Measurements reported in the supplement of paper PMC9112550, “Optimization of the antimicrobial peptide Bac7 by deep mutational scanning” (BMC Biology, 2022).
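Note: peptides expressed intracellularly from a pBAD plasmid library in pooled LB shake-flask culture, induced with 0.3% L-arabinose, DNA abundance read by NGS, three biological replicates, DESeq2 with apeglm shrinkage.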

The sequences below were run on Escherichia coli TOP10 (assay: shrunken log2 fold change of peptide-encoding DNA abundance (4.5 h post-induction vs induction); higher = less antimicrobial activity (less host growth inhibition)). Details: time post-induction: 4.5 h; library: site-saturation at positions 5, 18, 19, 20.
In the case of RRIRWRPPRLPRPRPRPEKVPRP, the “shrunken log2 fold change” value is reported as 0.115.
For RRIRRRPPRLPRPRPRPWRTPRP, the “shrunken log2 fold change” value was -0.0112.
For RRIRARPPRLPRPRPRPGKCPRP, the “shrunken log2 fold change” value was 0.0981.
In the case of RRIRNRPPRLPRPRPRPFMQPRP, the “shrunken log2 fold change” value is reported as -0.194.
For RRIRWRPPRLPRPRPRPMYVPRP, the “shrunken log2 fold change” value was -0.0461.
RRIRVRPPRLPRPRPRPNVLPRP was tested, and the “shrunken log2 fold change” value was 0.0178.
For RRIRIRPPRLPRPRPRPIFAPRP, the “shrunken log2 fold change” value was -0.0891.
In the case of RRIRMRPPRLPRPRPRPDPMPRP, the “shrunken log2 fold change” value is reported as 0.501.
With RRIRCRPPRLPRPRPRPMHTPRP the “shrunken log2 fold change” value was -0.106.
With RRIRCRPPRLPRPRPRPIHCPRP the “shrunken log2 fold change” value was -0.0192.
In the case of RRIRQRPPRLPRPRPRPCWIPRP, the “shrunken log2 fold change” value is reported as -0.209.
With RRIRSRPPRLPRPRPRPGRTPRP the “shrunken log2 fold change” value was 0.0636.
RRIRERPPRLPRPRPRPHVRPRP was tested, and the “shrunken log2 fold change” value was -0.105.
For RRIRDRPPRLPRPRPRPKSLPRP, the “shrunken log2 fold change” value was 0.196.
In the case of RRIRCRPPRLPRPRPRPCLDPRP, the “shrunken log2 fold change” value is reported as 0.11.
RRIRWRPPRLPRPRPRPTHQPRP was tested, and the “shrunken log2 fold change” value was -0.0304.
In the case of RRIRNRPPRLPRPRPRPHPSPRP, the “shrunken log2 fold change” value is reported as -0.25.
RRIRLRPPRLPRPRPRPMDIPRP was tested, and the “shrunken log2 fold change” value was -0.568.
For RRIRFRPPRLPRPRPRPHMTPRP, the “shrunken log2 fold change” value was -0.186.
For RRIRERPPRLPRPRPRPSTNPRP, the “shrunken log2 fold change” value was -0.317.
With RRIRGRPPRLPRPRPRPIFEPRP the “shrunken log2 fold change” value was 0.357.
In the case of RRIRIRPPRLPRPRPRPLLIPRP, the “shrunken log2 fold change” value is reported as -0.485.
RRIRTRPPRLPRPRPRPVMTPRP was tested, and the “shrunken log2 fold change” value was -0.14.
In the case of RRIRARPPRLPRPRPRPAVEPRP, the “shrunken log2 fold change” value is reported as 0.666.
With RRIRERPPRLPRPRPRPGGNPRP the “shrunken log2 fold change” value was -0.442.
In the case of RRIRWRPPRLPRPRPRPLWYPRP, the “shrunken log2 fold change” value is reported as -0.225.
For RRIRRRPPRLPRPRPRPYESPRP, the “shrunken log2 fold change” value was 0.0181.
For RRIRRRPPRLPRPRPRPKTNPRP, the “shrunken log2 fold change” value was 0.221.
With RRIRYRPPRLPRPRPRPYFTPRP the “shrunken log2 fold change” value was -0.981.
With RRIRHRPPRLPRPRPRPAPMPRP the “shrunken log2 fold change” value was 0.164.
With RRIRMRPPRLPRPRPRPSLHPRP the “shrunken log2 fold change” value was -0.222.
In the case of RRIRRRPPRLPRPRPRPDAWPRP, the “shrunken log2 fold change” value is reported as 0.325.
In the case of RRIRQRPPRLPRPRPRPNISPRP, the “shrunken log2 fold change” value is reported as -0.565.
For RRIRERPPRLPRPRPRPPQCPRP, the “shrunken log2 fold change” value was -0.302.
For RRIRQRPPRLPRPRPRPPKYPRP, the “shrunken log2 fold change” value was -0.313.
With RRIRGRPPRLPRPRPRPKHGPRP the “shrunken log2 fold change” value was 0.699.
For RRIRARPPRLPRPRPRPAQYPRP, the “shrunken log2 fold change” value was 0.175.
In the case of RRIRTRPPRLPRPRPRPWCMPRP, the “shrunken log2 fold change” value is reported as -0.0742.
In the case of RRIRKRPPRLPRPRPRPTAFPRP, the “shrunken log2 fold change” value is reported as 0.355.
In the case of RRIRCRPPRLPRPRPRPIHMPRP, the “shrunken log2 fold change” value is reported as 0.109.
RRIRCRPPRLPRPRPRPVCLPRP was tested, and the “shrunken log2 fold change” value was -0.168.
With RRIRARPPRLPRPRPRPIEQPRP the “shrunken log2 fold change” value was 0.124.
With RRIRNRPPRLPRPRPRPKHGPRP the “shrunken log2 fold change” value was 0.0401.
With RRIRARPPRLPRPRPRPWIWPRP the “shrunken log2 fold change” value was 0.111.
With RRIRTRPPRLPRPRPRPTRVPRP the “shrunken log2 fold change” value was 0.214.
In the case of RRIRQRPPRLPRPRPRPWIHPRP, the “shrunken log2 fold change” value is reported as -0.103.
RRIRTRPPRLPRPRPRPCTSPRP was tested, and the “shrunken log2 fold change” value was -0.137.
For RRIRPRPPRLPRPRPRPSWTPRP, the “shrunken log2 fold change” value was -0.326.
RRIRCRPPRLPRPRPRPPSEPRP was tested, and the “shrunken log2 fold change” value was 0.102.
With RRIRPRPPRLPRPRPRPCCAPRP the “shrunken log2 fold change” value was 0.0786.
In the case of RRIRIRPPRLPRPRPRPNICPRP, the “shrunken log2 fold change” value is reported as -0.147.
For RRIRERPPRLPRPRPRPFCNPRP, the “shrunken log2 fold change” value was -0.366.
In the case of RRIRMRPPRLPRPRPRPLDPPRP, the “shrunken log2 fold change” value is reported as 0.146.
With RRIRTRPPRLPRPRPRPYPNPRP the “shrunken log2 fold change” value was -0.414.
RRIRERPPRLPRPRPRPCRMPRP was tested, and the “shrunken log2 fold change” value was -0.363.
For RRIRFRPPRLPRPRPRPSMPPRP, the “shrunken log2 fold change” value was -0.331.
RRIRMRPPRLPRPRPRPGDGPRP was tested, and the “shrunken log2 fold change” value was 0.864.
RRIRLRPPRLPRPRPRPSACPRP was tested, and the “shrunken log2 fold change” value was -0.484.
In the case of RRIRWRPPRLPRPRPRPATWPRP, the “shrunken log2 fold change” value is reported as 0.152.
With RRIRLRPPRLPRPRPRPMICPRP the “shrunken log2 fold change” value was 0.13.
With RRIRPRPPRLPRPRPRPYWYPRP the “shrunken log2 fold change” value was -0.958.
In the case of RRIRDRPPRLPRPRPRPLQIPRP, the “shrunken log2 fold change” value is reported as -0.21.
With RRIRTRPPRLPRPRPRPIWFPRP the “shrunken log2 fold change” value was -0.033.
For RRIRIRPPRLPRPRPRPHSHPRP, the “shrunken log2 fold change” value was -0.912.
RRIRERPPRLPRPRPRPTNKPRP was tested, and the “shrunken log2 fold change” value was -0.533.
With RRIRIRPPRLPRPRPRPKCVPRP the “shrunken log2 fold change” value was -0.328.
RRIRYRPPRLPRPRPRPHEIPRP was tested, and the “shrunken log2 fold change” value was -0.194.
In the case of RRIRFRPPRLPRPRPRPCWFPRP, the “shrunken log2 fold change” value is reported as -0.509.
RRIRFRPPRLPRPRPRPMAFPRP was tested, and the “shrunken log2 fold change” value was -0.126.
For RRIRGRPPRLPRPRPRPAQMPRP, the “shrunken log2 fold change” value was 0.305.
RRIRERPPRLPRPRPRPVWGPRP was tested, and the “shrunken log2 fold change” value was 0.259.
RRIRQRPPRLPRPRPRPNVQPRP was tested, and the “shrunken log2 fold change” value was 0.031.
RRIRRRPPRLPRPRPRPAHCPRP was tested, and the “shrunken log2 fold change” value was 0.804.
For RRIRTRPPRLPRPRPRPPVNPRP, the “shrunken log2 fold change” value was 0.0698.
In the case of RRIRPRPPRLPRPRPRPNMDPRP, the “shrunken log2 fold change” value is reported as -0.674.
For RRIRFRPPRLPRPRPRPNSAPRP, the “shrunken log2 fold change” value was -0.603.
RRIRDRPPRLPRPRPRPKPCPRP was tested, and the “shrunken log2 fold change” value was 0.0155.
RRIRNRPPRLPRPRPRPSRDPRP was tested, and the “shrunken log2 fold change” value was -0.129.
RRIRARPPRLPRPRPRPTTLPRP was tested, and the “shrunken log2 fold change” value was 0.067.
With RRIRPRPPRLPRPRPRPAWYPRP the “shrunken log2 fold change” value was 0.0306.
With RRIRPRPPRLPRPRPRPKQQPRP the “shrunken log2 fold change” value was 0.214.
With RRIRVRPPRLPRPRPRPGQLPRP the “shrunken log2 fold change” value was 0.208.
In the case of RRIRARPPRLPRPRPRPFYSPRP, the “shrunken log2 fold change” value is reported as -0.0849.
RRIRCRPPRLPRPRPRPSCRPRP was tested, and the “shrunken log2 fold change” value was -0.685.
RRIRIRPPRLPRPRPRPAAAPRP was tested, and the “shrunken log2 fold change” value was 0.286.
For RRIRRRPPRLPRPRPRPELPPRP, the “shrunken log2 fold change” value was 0.695.
RRIRPRPPRLPRPRPRPHSKPRP was tested, and the “shrunken log2 fold change” value was -0.14.
In the case of RRIRYRPPRLPRPRPRPRNHPRP, the “shrunken log2 fold change” value is reported as -0.336.
For RRIRYRPPRLPRPRPRPADAPRP, the “shrunken log2 fold change” value was 0.0896.
For RRIRWRPPRLPRPRPRPLTYPRP, the “shrunken log2 fold change” value was -0.423.
In the case of RRIRDRPPRLPRPRPRPVHVPRP, the “shrunken log2 fold change” value is reported as 0.0158.
RRIRIRPPRLPRPRPRPGLDPRP was tested, and the “shrunken log2 fold change” value was 0.0575.
With RRIRQRPPRLPRPRPRPWLSPRP the “shrunken log2 fold change” value was 0.0988.
RRIRSRPPRLPRPRPRPHPMPRP was tested, and the “shrunken log2 fold change” value was -0.236.
In the case of RRIRFRPPRLPRPRPRPWKRPRP, the “shrunken log2 fold change” value is reported as -0.0222.
For RRIRYRPPRLPRPRPRPIVFPRP, the “shrunken log2 fold change” value was -0.58.
With RRIRWRPPRLPRPRPRPMCQPRP the “shrunken log2 fold change” value was 0.132.
With RRIRNRPPRLPRPRPRPPFNPRP the “shrunken log2 fold change” value was -0.299.
For RRIRVRPPRLPRPRPRPLKTPRP, the “shrunken log2 fold change” value was -0.0304.
In the case of RRIRCRPPRLPRPRPRPGARPRP, the “shrunken log2 fold change” value is reported as 0.394.
In the case of RRIRIRPPRLPRPRPRPTLWPRP, the “shrunken log2 fold change” value is reported as 0.22.
RRIRTRPPRLPRPRPRPKIWPRP was tested, and the “shrunken log2 fold change” value was 0.141.
RRIRWRPPRLPRPRPRPCSAPRP was tested, and the “shrunken log2 fold change” value was 0.0988.
In the case of RRIRLRPPRLPRPRPRPDCMPRP, the “shrunken log2 fold change” value is reported as -0.0708.
With RRIRGRPPRLPRPRPRPHYVPRP the “shrunken log2 fold change” value was -0.0585.
For RRIRARPPRLPRPRPRPRFKPRP, the “shrunken log2 fold change” value was 0.122.
In the case of RRIRERPPRLPRPRPRPGVDPRP, the “shrunken log2 fold change” value is reported as 0.114.
For RRIRSRPPRLPRPRPRPKIDPRP, the “shrunken log2 fold change” value was -0.000854.
For RRIRHRPPRLPRPRPRPWGTPRP, the “shrunken log2 fold change” value was -0.44.
